# Laboratory results as given in the supplement of paper PMC10724198.
# ± gives the standard deviation of the averaged measurements.
# System: Saccharomyces cerevisiae
# Experiment: protein stability index of tFT-peptide fusion (C-terminal peptide) (PSI (0-1 scale)); higher = more stable (slower turnover)
# Settings: genetic background: wild type; temperature: 30 C
# Experimental: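 MPS profiling in S. cerevisiae of the tFT-X12 degron library: putative degron peptides plus stable controls, 12 aa, fused to the C-terminus of a sfGFP-mCherry timer. Cells are FACS-sorted into 8 mCherry/sfGFP bins and deep-sequenced. PSI runs from 0 (unstable) to 1 (stable). Backgrounds are wild type, das1Δ and doa10Δ at 30 °C, and wild type, das1Δ, cdc34-1 and cdc53-1 at 37 °C; 2-3 technical replicates each.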
# 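Also: PSI is a weighted mean of sequencing reads over stability bins, variants kept only with over 10 reads, mCherry proximal and sfGFP distal, peptide attached via GGGS linker.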
row,Sequence,protein stability index
1,VCVYLVSLPYLA,0.232 ± 0.03
2,VDFCLLFLLLLV,0.331 ± 0.02
3,VFCLPISAPPLH,0.635 ± 0.019
4,VFCMVLPFVLLT,0.136 ± 0.02
5,VFFCVLRVFFSA,0.132 ± 0.029
6,VFFIFFFAFLFF,0.322 ± 0.014
7,VFFMFVFFPFPG,0.413 ± 0.028
8,VFGSRCLLTVVV,0.358 ± 0.043
9,VFGWWSVVLRVA,0.0694 ± 0.017
10,VFILGFLCLLFF,0.334 ± 0.024
11,VFIPFGFCLCFV,0.295 ± 0.017
12,VFLCFSWHFFLF,0.304 ± 0.029
13,VFLVGFRVTLDS,0.215 ± 0.033
14,VFSFWVLCEVSV,0.0221 ± 0.0057
15,VFVFTFSLSFYC,0.274 ± 0.018
16,VFVRDFLVSIVV,0.164 ± 0.022
17,VFWVLVSFLFYV,0.3 ± 0.018
18,VFWVVFRALVGD,0.212 ± 0.0029
19,VGAGVFAWLWVA,0.145 ± 0.024
20,VGAYSVVYVVFS,0.318 ± 0.025
21,VGVLWALIVGVR,0.18 ± 0.012
22,VGVYVWRGVLWA,0.218 ± 0.028
23,VHHAFLPYTLVR,0.407 ± 0.019
24,VHNIDLFVVCYI,0.258 ± 0.027
25,VIAFFSVLKRYV,0.241 ± 0.0073
26,VKSAVLLFFLVT,0.199 ± 0.021

row,Sequence,protein stability index
1,VLFFLVTSSVYF,0.187 ± 0.0095
2,VLPCSLVPLRLH,0.374 ± 0.026
3,VLPLRCSWAAQG,0.298 ± 0.013
4,VMLIRVSRGIKC,0.29 ± 0.038
5,VMLVISRLLLLF,0.105 ± 0.017
6,VPGPSPPRFTQR,0.656 ± 0.011
7,VPVWHTVKLYCF,0.088 ± 0.017
8,VPWSKIAARLII,0.315 ± 0.054
9,VRMMYSVQVWCG,0.0222 ± 0.0046
10,VRVWLLACASKG,0.24 ± 0.015
11,VSDLYLSLVRVV,0.31 ± 0.029
12,VSGVLRSMVRLQ,0.324 ± 0.031
13,VSRAVCLWRRLL,0.104 ± 0.036
14,VSSFLLPFCLLF,0.641 ± 0.016
15,VSWSVSALIYLK,0.277 ± 0.034
16,VTLLCRFFMLVF,0.289 ± 0.014
17,VVGFVFSCWWSW,0.372 ± 0.045
18,VVGVLLLYLNPF,0.336 ± 0.039
19,VVLWWWVVARDL,0.339 ± 0.03
20,VVRLRVWRLLKV,0.161 ± 0.026
21,VVRSIVVYTCVF,0.253 ± 0.02
22,VVRVIWCQFSCF,0.234 ± 0.022
23,VVTLHISLFYPG,0.415 ± 0.029
24,VVVRARVFFHIF,0.0583 ± 0.025
25,VVWLFGVSWCWL,0.34 ± 0.03
26,VWACWCGWVLLM,0.15 ± 0.019

row,Sequence,protein stability index
1,VWLFCLSRLYLL,0.101 ± 0.023
2,VYCQRFMLLFTP,0.433 ± 0.0094
3,VYGSLPVVVCRI,0.413 ± 0.011
4,VYIVLLLLFLRP,0.319 ± 0.015
5,VYLVLRCGSVLV,0.399 ± 0.016
6,VYVLVFNMENIS,0.401 ± 0.033
7,VYVSRTRPFSLY,0.3687 ± 0.0034
8,WACAWRGMVKVG,0.0897 ± 0.021
9,WAIVVLVCFLRL,0.277 ± 0.019
10,WCCCVSGFVWWM,0.465 ± 0.015
11,WCGSWGVWMRLG,0.0842 ± 0.0092
12,WEPILLELELCV,0.388 ± 0.013
13,WFLLILFSAFAV,0.3465 ± 0.003
14,WFSVIMLCYILP,0.198 ± 0.014
15,WFVCSGVYGSVM,0.638 ± 0.026
16,WFVFVFCSPRSS,0.406 ± 0.017
17,WGFSVRFVLSVF,0.0463 ± 0.02
18,WGVVMVCVVFGL,0.183 ± 0.019
19,WHFMVFFCFCVD,0.277 ± 0.023
20,WILPASFCVVFL,0.397 ± 0.016
21,WLALSFFSFFFC,0.57 ± 0.026
22,WLFRASSFNWVI,0.105 ± 0.026
23,WLFTSVTVFTFL,0.196 ± 0.013
24,WLSISNLVIACR,0.115 ± 0.025
25,WNSQGVFILAKC,0.372 ± 0.021
26,WRAFVFYHHFLD,0.363 ± 0.029

# Same assay, conditions: genetic background: wild type; temperature: 37 C
row,Sequence,protein stability index
1,VCVYLVSLPYLA,0.381 ± 0.011
2,VDFCLLFLLLLV,0.462 ± 0.014
3,VFCLPISAPPLH,0.7027 ± 0.0031
4,VFCMVLPFVLLT,0.157 ± 0.016
5,VFFCVLRVFFSA,0.195 ± 0.0091
6,VFFIFFFAFLFF,0.39 ± 0.03
7,VFFMFVFFPFPG,0.538 ± 0.0059
8,VFGSRCLLTVVV,0.504 ± 0.0071
9,VFGWWSVVLRVA,0.0612 ± 0.011
10,VFILGFLCLLFF,0.445 ± 0.054
11,VFIPFGFCLCFV,0.4401 ± 0.0027
12,VFLCFSWHFFLF,0.467 ± 0.011
13,VFLVGFRVTLDS,0.419 ± 0.0069
14,VFSFWVLCEVSV,0.072 ± 0.02
15,VFVFTFSLSFYC,0.3241 ± 0.0021
16,VFVRDFLVSIVV,0.166 ± 0.011
17,VFWVLVSFLFYV,0.4059 ± 0.0036
18,VFWVVFRALVGD,0.26 ± 0.0051
19,VGAGVFAWLWVA,0.135 ± 0.0078
20,VGAYSVVYVVFS,0.529 ± 0.0059
21,VGVLWALIVGVR,0.289 ± 0.043
22,VGVYVWRGVLWA,0.397 ± 0.024
23,VHHAFLPYTLVR,0.5709 ± 0.0043
24,VHNIDLFVVCYI,0.451 ± 0.015
25,VIAFFSVLKRYV,0.465 ± 0.0052
26,VKSAVLLFFLVT,0.312 ± 0.01

row,Sequence,protein stability index
1,VLFFLVTSSVYF,0.327 ± 0.0083
2,VLPCSLVPLRLH,0.548 ± 0.0098
3,VLPLRCSWAAQG,0.538 ± 0.044
4,VMLIRVSRGIKC,0.473 ± 0.0067
5,VMLVISRLLLLF,0.168 ± 0.018
6,VPGPSPPRFTQR,0.692 ± 0.025
7,VPVWHTVKLYCF,0.0851 ± 0.018
8,VPWSKIAARLII,0.5015 ± 0.0036
9,VRMMYSVQVWCG,0.0439 ± 0.0023
10,VRVWLLACASKG,0.3609 ± 0.0016
11,VSDLYLSLVRVV,0.492 ± 0.017
12,VSGVLRSMVRLQ,0.58 ± 0.03
13,VSRAVCLWRRLL,0.124 ± 0.026
14,VSSFLLPFCLLF,0.6753 ± 0.0013
15,VSWSVSALIYLK,0.295 ± 0.015
16,VTLLCRFFMLVF,0.428 ± 0.017
17,VVGFVFSCWWSW,0.46 ± 0.014
18,VVGVLLLYLNPF,0.525 ± 0.0095
19,VVLWWWVVARDL,0.514 ± 0.01
20,VVRLRVWRLLKV,0.185 ± 0.016
21,VVRSIVVYTCVF,0.405 ± 0.0074
22,VVRVIWCQFSCF,0.434 ± 0.027
23,VVTLHISLFYPG,0.461 ± 0.019
24,VVVRARVFFHIF,0.07 ± 0.014
25,VVWLFGVSWCWL,0.518 ± 0.015
26,VWACWCGWVLLM,0.195 ± 0.0032

row,Sequence,protein stability index
1,VWLFCLSRLYLL,0.114 ± 0.011
2,VYCQRFMLLFTP,0.55 ± 0.0071
3,VYGSLPVVVCRI,0.539 ± 0.011
4,VYIVLLLLFLRP,0.3951 ± 0.0015
5,VYLVLRCGSVLV,0.586 ± 0.02
6,VYVLVFNMENIS,0.585 ± 0.036
7,VYVSRTRPFSLY,0.573 ± 0.007
8,WACAWRGMVKVG,0.0811 ± 0.0041
9,WAIVVLVCFLRL,0.362 ± 0.011
10,WCCCVSGFVWWM,0.602 ± 0.017
11,WCGSWGVWMRLG,0.112 ± 0.029
12,WEPILLELELCV,0.538 ± 0.068
13,WFLLILFSAFAV,0.471 ± 0.0049
14,WFSVIMLCYILP,0.248 ± 0.036
15,WFVCSGVYGSVM,0.721 ± 0.0092
16,WFVFVFCSPRSS,0.568 ± 0.0097
17,WGFSVRFVLSVF,0.115 ± 0.024
18,WGVVMVCVVFGL,0.252 ± 0.027
19,WHFMVFFCFCVD,0.355 ± 0.028
20,WILPASFCVVFL,0.528 ± 0.032
21,WLALSFFSFFFC,0.66 ± 0.02
22,WLFRASSFNWVI,0.188 ± 0.019
23,WLFTSVTVFTFL,0.347 ± 0.016
24,WLSISNLVIACR,0.127 ± 0.017
25,WNSQGVFILAKC,0.561 ± 0.00046
26,WRAFVFYHHFLD,0.5863 ± 0.0019
